# Source: patent US9663561B2, “Methods of treatment of cancer using SRC-modulating peptides” (The University of Toledo, priority 2006, dated 2017)
# What was measured:
# Src = target: T1, Src (Sus scrofa, UniProt K7GM45); assay: GST-CD3 pulldown of Src from LLC-PK1 cell lysates; type: binding, pig; conditions: 1 mg LLC-PK1 cell lysates
# T1 construct: endogenous in cells; host or cells: LLC-PK1 (pig kidney)
# Experimental: FIG. 4C. A Western blot showing that Src was pulled down by GST-CD3 of Na+/K+-ATPase (Na/K) and H+/K+-ATPase (H/K), but not SERCA from 1 mg LLC-PK1 cell lysates.
# Cells were lysed in RIPA buffer containing 1% Nonidet P40, 0.25% sodium deoxycholate, 150 mM NaCl, 1 mM EDTA, 1 mM phenylmethylsulfonyl fluoride, 1 mM sodium orthovanadate, 1 mM NaF, 10 μg/ml aprotinin, 10 μg/mlleupeptin, and 50 mM Tris-HCl (pH 7.4). Cell lysates were cleared by centrifugation at 16,000×g for […], and the supernatants (1 mg) were either immunoprecipitated with anti-α1 antibody or incubated with different GST-fusion proteins. The complexes were then pulled down by either protein G agarose or glutathione beads (Ma et al., 2000; Haas et al., 2002) and analyzed by Western blot.
# purified Na+/K+-ATPase = target: T2, purified Na+/K+-ATPase (Sus scrofa, UniProt P05024); assay: In vitro GST pulldown binding assay with purified Na+/K+-ATPase; set-up: species or system pig; conditions: 2 μg purified Na+/K+-ATPase per assay
# T2 construct: Na+/K+-ATPase was purified from pig kidney outer medulla using the Jorgensen method; from tissue; host or cells: pig kidney outer medulla
# Experimental: The purified Na+/K+-ATPase was solubilized in 1% Triton X-100 PBS and centrifuged at 100,000×g for 30 min. The supernatant was collected for the binding assay. GST-fusion proteins (5 μg) were conjugated on glutathione beads and incubated with the solubilized Na+/K+-ATPase in 500 μl PBS in the presence of 0.5% Triton X-100 at room temperature for 30 min. The beads were washed with the same buffer for four times. The bound Na+/K+ATPase was resolved on 10% SDS-PAGE and detected by Western blot. Reciprocal binding assay using GST-Na+/K+-ATPase constructs (5 μg) and purified Src lacking of first 85 amino acids (200 ng) or His-tagged Src constructs (100 ng) was done similarly. To test if native Na+/K+-ATPase binds Src, the above experiments were repeated in the absence of Triton X-100. To make the Na+/K+-ATPase/Src complex, 2-5 μg of the purified Na+/K+ATPase was incubated with 4.5 U of Src (˜10 ng) in PBS in the absence of Triton X-100 at room temperature for 30 min. The complex was either used for the experiments directly as indicated or collected by centrifugation at 100,000×g for 30 min.
# [1] = target: T3, Na+/K+-ATPase/Src complex (Sus scrofa, UniProt P05024); assay: Src pY418 phosphorylation of the Na+/K+-ATPase/Src complex (Western blot); type: biochemical; conditions: 5 μg GST fusion preincubated with 2 μg Na+/K+-ATPase before adding Src (4.5 U)
# T3 construct: Na+/K+-ATPase was purified from pig kidney outer medulla using the Jorgensen method; tissue Upstate Biotechnology (Src only); host or cells: pig kidney outer medulla (Na+/K+-ATPase)
# Experimental: The Src kinase activity was assayed using a commercial kit (Haas et al., 2000). To determine how Na+/K+-ATPase affects Src kinase activity, the purified Src (4.5 U) was incubated with 5 μg of the purified Na+/K+-ATPase in the Src assay buffer for 30 min at room temperature. Afterward, both control Src or the Na+/K+-ATPase-bound Src were exposed to 10 μM ouabain and Src kinase activity was determined. In other experiments, the Src pY418 was measured by anti-pY418 antibody to indicate Src activation (Ma et al., 2000). To do so, the purified Src (4.5 U) was incubated with different amounts of the purified Na+/K+-ATPase or GST-Na+/K+ATPase constructs in phosphate-buffered saline (PBS) for 30 min at 37° C. Afterward, 2 mM ATP/Mg2+ was added. The reaction continued for 5 min at 37° C. and was stopped by addition of SDS sample buffer.
# The purified Na+/K+-ATPase was solubilized in 1% Triton X-100 PBS and centrifuged at 100,000×g for 30 min. The supernatant was collected for the binding assay. GST-fusion proteins (5 μg) were conjugated on glutathione beads and incubated with the solubilized Na+/K+-ATPase in 500 μl PBS in the presence of 0.5% Triton X-100 at room temperature for 30 min. The beads were washed with the same buffer for four times. The bound Na+/K+ATPase was resolved on 10% SDS-PAGE and detected by Western blot. […]
Molecule,pulldown of Src from LLC-PK1 cell lysates (Src),binding to the Na+/K+-ATPase (purified Na+/K+-ATPase),Src pY418 in presence of Na+/K+-ATPase [1]
GST-SERCA-CD3: GST fusion of the CD3 from rat heart SERCA 2a (protein) GTRRMAKKNAIVRSLPSVETLGCTSVICSDKTGTLTTNQMSVCRMFILDKVEGDTCSLNEFTITGSTYAPIGEVQKDDKPVKCHQYDGLVELATICALCNDSALDYNEAKGVYEKVGEATETALTCLVEKMNVFDTELKGLSKIERANACNSVIKQLMKKEFTLEFSRDRKSMSVYCTPNKPSRTSMSKMFVKGAPEGVIDRCTHIRVGSTKVPMTPGVKQKIMSVIREWGSGSDTLRCLALATHDNPLRREEMHLEDSANFIKYETNLTFVGCVGMLDPPRIEVASSVKLCRQAGIRVIMITGDNKGTAVAICRRIGIFGQDEDVTSKAFTGREFDELSPSAQRDACLNARCFARVEPSHKSKIVEFLQSFDEITAMTGDGVNDAPALKKSEIGIAMGSGTAVAKTASEMVLADDNFSTIVAAVEEGRAIYNNMKQFIRYLISSNV,not,,
"GST-SH2: GST fusion of Src SH2 domain (protein, left off: a dimerising Fc or GST, GST fusion of Src SH2 domain) WYFGKITRRESERLLLNPENPRGTFLVRESETTKGAYCLSVSDFDNAKGLNVKHYKIRKLDSGGFYITSRTQFSSLQQLVAYYSKHADGLCHRLTNVC",,Binding,
"GST-kinase: GST fusion of Src kinase domain (protein, left off: a dimerising Fc or GST, GST fusion of Src kinase domain) QTQGLAKDAWEIPRESLRLEVKLGQGCFGEVWMGTWNGTTRVAIKTLKPGTMSPEAFLQEAQVMKKLRHEKLVQLYAVVSEEPIYIVTEYMSKGSLLDFLKGEMGKYLRLPQLVDMAAQIASGMAYVERMNYVHRDLRAANILVGENLVCKVADFGLARLIEDNEYTARQGAKFPIKWTAPEAALYGRFTIKSDVWSFGILLTELTTKGRVPYPGMVNREVLDQVERGYRMPCPPECPESLHDLMCQCWRKDPEERPTFEYLQAFLEDYFTSTEPQYQPGENL",,Binding,significantly increased Src pY418
